Experiment: yeast display, Sf9 membrane polyspecificity reagent, FACS + sequencing; frameworks hold sequencing errors
In short: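 A nanobody's polyreactivity label depends on the gate it was sorted from. Yeast display cells were stained with 10% biotinylated, detergent-solubilized Sf9 membrane reagent for 1 hour at 4 °C, enriched on streptavidin microbeads and sorted by FACS. The low and high (top ~1%) gates were set on anti-HA fluorescence for expression and streptavidin fluorescence for reagent binding.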

## QVQLVESGGGLVQAGGSHRLSCAASGGILETNAMGWYRQAPGKERELVAAIDFSAGSTYYADSVKGRFTISRDNAKNTVYLQMNSLKPEDTAVYYCAAESQGPKDDYLWGWHIYYYWGQGSQVTVSS
  polyreactivity (PSR sort gate): low polyreactivity

## QVQLVESGGGLVQAGGSLRLSCAASGFTLTLYAMGCYRQSPGKERELVAAISGNGGRTYYADSVKGRFTISRDNAKNTVYLQMNSLKPEDTAVYYCAARYTRSPSDYSTRKFGYGYWGQGTQVTVSS
  polyreactivity (PSR sort gate): high polyreactivity

## QVQRVESGGGLVQAGGSLRLSCAASGRIFLIYAMGWYRPAPGKERELVAGISSGGSTYYADSVKGRFTISRDNAKNTVYLQMNSLKPEDTAVYYCAARRYYYRYLFGRYAYGYWGQGTQVNVSS
  polyreactivity (PSR sort gate): low polyreactivity

## QVQLVESGGGLVQAGGSLRLSCAASGFTFYYYTMGWYRQAPGKERELVAAITWRGGSTNYADSVKGRFTISRDNAKNTVYLQMNSLKPEDTAVYYCAAVTYWFWPGMDYWGQGTQVTVSS
  polyreactivity (PSR sort gate): low polyreactivity

## QVQLVESVGGLVQAGGILRLSSAASGSTFERYAMGWDRQAPGKEREFVATINWGGGSTYYADSVKGRFTISRDNAKKTVYLQMNSLKPEDTAVDYCNAYVLYQSWRFSYDYWGQGTHVTVSS
  polyreactivity (PSR sort gate): low polyreactivity

## QVQLVESGGGLVQAGGSLRLSCAASGRTFLANAMGWYRQAPGKERELVAAITWSGGRTNYADSVKGRFTISRDNAKNTVYLQMNSLKPEDTAVYYCAADIFYEQVVGGTDVGYHDFDYWGQGTQVTVSS
  polyreactivity (PSR sort gate): low polyreactivity

## QVQLVESRGGLVQAGGSLRLSCAASGRTFGRNTMGWYRQAPGKERELVAAISISGTSTYYADSVKGRFTISRDNAKNTVSLQMNSLKPEDTAVYDCAARYIRGSYGMGYWGQGTQVTVSS
  polyreactivity (PSR sort gate): high polyreactivity

## QVQLVESGGGLVQAGGSLRLSCAASGSIFYGNALGWYRQAPGKEREFVAAISSSGGSTYYADSVKGRFTISRDNAKNTVYLQMNSLKPEDTAVYYCAARGPKHTHSRRYFTEYDYWGQGTQVTVSS
  polyreactivity (PSR sort gate): low polyreactivity

## QVQLVESGGGLVQAGGSLRLSCAASGRIFGYNDMGLYRQAPGKERELVAAINWTGGSTYYADSVKGRFTISRDNAKNTVYLQMNSLKPEDTAVYYCNADARTKWVQTHTDFITDYDYWGQGTQVTVSS
  polyreactivity (PSR sort gate): low polyreactivity

## QVQLVESGGGLVQAGGSLRLSCAASGSIFGGNAMGWYRQAPGKERELVAAITSRGGSTYYADSVKGRFTISRDNAKNTVYLQMNSLKPEDTAVYYCNALSSGVYLYDYWGQGTQVTVSS
  polyreactivity (PSR sort gate): high polyreactivity

## QVQLVESGGGLVQAGGSLRLSCAASGSIFSKYAMGWYRQAPGKEREFVAAISRSGGRTYYADSVKGRFTISRDNAKNTVYLQMNSLKPEDTAVYYCAAYPYNPRRRTEGDYWGQGTQVTVSS
  polyreactivity (PSR sort gate): high polyreactivity

## QVQLVESGGGLVQAGGSLRLSCAASGLTFGWNAMGWYRQAPGKERELVAGITSDTITHYADSVKGRFTISRDNAKNTVYLQMNSLKPEDTAVYYCAVPRGVASLQKVEFGYWGQGTQVTVSS
  polyreactivity (PSR sort gate): low polyreactivity

## QVQLVESGGGLVQAGGSLRLSCAASGRTLRKYAMGWYRQAPGKERELVAAITTSGGSTYYADSVKGRFTISRDNAKNTVYLQMNSLKPEDTAVYYCNAARYYAYIGDYWGQGTQVTVSS
  polyreactivity (PSR sort gate): high polyreactivity

## QVQLVESGGGLVQAGGSLRLSCAASGFIFFQNAMGWYRQAQGKERELVAAISRRGGSTYYADSVKGRFTISRDNAKNTVYLQMNSLKPEDTAVYYCAARSRGDLASLYTGDYWGQGTQVTVSS
  polyreactivity (PSR sort gate): low polyreactivity

## QVQLVESGGGLVQAGGSLRLSCAASGSIFIYYAMGWYRQAPGKERELVAAITWRSGSTYYADSVKGRFTISRDNAKNTVYFQRNSLKPEDNAVNYCAAYAWTATDSARPYGYDYWGQGTQVTVSS
  polyreactivity (PSR sort gate): low polyreactivity

## QVQHVESGGGLLQAGGSLRLSSAATGSTNAMGWYRQAHGKERELVAAISRRGGSTYYADSVKGRFTISRDNAKKTVYLQMFSLKPEDTAVYYCAAPYSTFSYVYWGQGTQLTVSS
  polyreactivity (PSR sort gate): high polyreactivity

## QVQLVESGGGLVQAGGSLRLSCADSARTFYTNAKGWYRQAPGKERELVAAITGSDGNTYYADSVKGRFTISRDNAKNTVYLQMISLKPEDTAVYYGYDYWVQGTQVTVSS
  polyreactivity (PSR sort gate): low polyreactivity

## QVQLVESGGGLVQAGGSLRLSCAASGSIFRFYVMGWYRPAPGKERELVAAISIGGSTNYADSVKGRFTISRDNAKNTVYLQMNSLKPEDTAVYYCAADYWYGAVLPHGTEFDYWGQGTQVTVSS
  polyreactivity (PSR sort gate): low polyreactivity

## QDQLVESGGGLVQAGGSLRLSCAASGSTFFGNAMGWSRQAPGKERELVAAISRGGGSTYYADSVKGRLTISRDNAKNTVYLQMNCLKPEDTAVYYCNADDPWTGTAVSTPNDSWGQGTQVTVSS
  polyreactivity (PSR sort gate): low polyreactivity

## QVQLVESGGGLVQAGGSLRLICADSGRIVPGYAMGWYRQAPGKERELVAAISTNGGRTYYADSVKGRFTISRDNAKYTVYFQRNSLKPEDTAVYYCNAARAVYTQKRFDSWGQGTQVTVSS
  polyreactivity (PSR sort gate): high polyreactivity

## QVQLVESGGGLVQAGGSLRLSCAASGITFYYYAMGWYRQAPGKERELVAAISDNGSRTYYADSVKGRFTISRDNAKNTVYFQMNSLKPEDTAVYYCAADWFYTNVRYRYAYGGYYWGQGTQVTVSS
  polyreactivity (PSR sort gate): high polyreactivity

## QVQLVESGGGLVQAGGSLRLTCAASGFIFDEYAMGWYRQAPGKERELVAAISWSGSRTYYADSVKGRFTISRDNAKTTVYLQMNSLKPEDTAVYYCAKVTGVGAGRRNYWGQGTQVTVSS
  polyreactivity (PSR sort gate): high polyreactivity

## QVQLVESGGGLVQAGCSLRLSCAASGSIFKRYTMGWYRQAPGKERELVAAISSRGGSTYYADSVKGRFTISRDNAKNTVYLQMNILKPEDTAVYYCNTKLHDGYGGWRYDYWGQGTQVTVSS
  polyreactivity (PSR sort gate): high polyreactivity

## QVQLVESGGGLVQAGGSLRLSCAASGLTFEHNAMGWYRQAPGKEREFVAVISWRGTSTYYADSVKGRFTISRDNAKNTVYLQMNSLKPEDTPVYYCATRYYGDDGYRYDHWGQGTQVTVSS
  polyreactivity (PSR sort gate): high polyreactivity

## QVQLVESGGGLVQAGGSLRLSCAASGRIFDLYTMGWYRQAPGKERELVAAIRWSDGSTYYADSVKGRFTISRDNAKNTVYLQMNSLKPEDTAVYYCATDTAILINFVLYDYWGQGTQVTVSL
  polyreactivity (PSR sort gate): low polyreactivity

## QVQLEESGGGLVQAGGSLRLSCAASGMILTYYAMAWNRQAPGKERELVAGISSGTNTNYADSVKWRFTISRDNAKNTVYLQMNSLKPEDTAVYYCANTRGYEFVAYGYWGQGTQVNVSS
  polyreactivity (PSR sort gate): low polyreactivity

## QVQLVESGGGLVQAGGSLRLSCAASGSIFPYAMGWYRQAPGKERELVAAITSGVRTNYADSVKGRFTISRDNAKNTVYLQIYSLKPEDTAVYYCAARYFPHYYSKYDYWGQGTQVTVSS
  polyreactivity (PSR sort gate): low polyreactivity

## QVQLVESGGGLVQAGGSLRLSCAASGSTFVSNAMGWYRQAPGKESELVAAISSSGGRTSYADSVKGRFTISRDHANNTVYLQMNSLKPEDTAVYYCNTLVVPYTDFKTSYNVDYWGQGTQVTVSS
  polyreactivity (PSR sort gate): low polyreactivity

## QVQLVESGGGLVQAGGSLRLSCAASGSTFYYYAMGWYRQAPGKERELVAAITYSGGSTTYADSVKGRFTISRDNAKNTVYLQMNSLKPEDTAVYYCAAYVYRYHRVAYEYWGQGTQVTVSS
  polyreactivity (PSR sort gate): high polyreactivity

## QVQLVESGGGLVQAGGSLRLSSAASGNIFVYYAKGLYRHAPGKERELVAAISKRGGSTYYADSVKGRFTISRDNAKNTVYLQMNSLKPEDTAVYYCAALGHVDDSIYDYWGQGTQLTVSS
  polyreactivity (PSR sort gate): high polyreactivity

## QVQLVESGGGLVQAGGSLRLSCAASGFTFAPYALGWYRQAPGKERELVAAIRRSGGSTYYADSVKGRFTISRDNAKNTVYLQMNSLKPEDTAVYYCAASTYQNGYGYWGQGTQVTVSS
  polyreactivity (PSR sort gate): high polyreactivity

## QVQLVESGGGLVQAGGSLRLSCAASGRIFGFNAMGWYRQAPGKERELVAGITDSSGRTNYADSVKGRFTISRDNAKNTVYLEMNSLKPEDTAVLYCAKDGLVITAVGSDLWGHGTQVTVSS
  polyreactivity (PSR sort gate): low polyreactivity

## QVQLVESGVGLVQAGGSLRLIWAASGSTFVKNVMGWYRQAPGKERELVAGITRGGSTYYADSVKGRFTISRDNAKKTVYLQMNSLKPEDTAVYYCAKRYAWDRDYWGQGTQVTVSS
  polyreactivity (PSR sort gate): high polyreactivity

## QVQLVESGGGLVQAGGSLRLSCAASGSIFLLYAMGWYRQAPGKERELVARISWSGDNTRYADSVKGRFTISRDNAKNTVYLQMNSLKPEDTAVYYCNAYYFYGQWKGYDYWGQGTQVTVSS
  polyreactivity (PSR sort gate): low polyreactivity

## QVQLVESGGGLVQAGGSLRLSCAASGSTFGFYAMGWFRQAPGKERELVAAISSSGSTYYADSVKGRFTISRDNAKNTVYVQINRLKPEDTAVYYCYADYWRYISSYDYWGQGTQVTVSS
  polyreactivity (PSR sort gate): low polyreactivity

## QVQLVESGGGLVQAGGSLRLSCAASGSIFRGYAMGWYRQAPGRERELVAAISRSGGSTYYADSVKGRFTISRDNAKNTVYLQMNSLKPEDTAVYYCAALLRGRYRMYYWGQGTQVTVSS
  polyreactivity (PSR sort gate): high polyreactivity

## QVQLLESGGGLVQAGGSLRLSCAASGRILTGYAMGWYRQAPGKERELFSSINWRGGSTYYADSVKGRFTISRDNAKNTVYLQMISLIPEDTAVYYCAARVLVTGTYYTIYDYWGQCTQVTVSS
  polyreactivity (PSR sort gate): high polyreactivity

## QVQIVESGGGLVQAGGTLRLSCAPSGRTFAPNTMGWYRHAPGKEREFVARINSRGGSTYADSVKGRFTISRDNAKNTVYLQMNSLKPEDTAVYYCARKPYRGVYRYDYWGQGTQVTVSS
  polyreactivity (PSR sort gate): high polyreactivity

## QVQLVESGGGLVQAGGSLRLSCAASGRTFAYYAMGWYRQAPGKERELVAAISTSGTRTYYADSVKGRFTISRDNAKNTVYLQMNSLKPEDTAVYYCAARYRYQYEFDYWGQGTQVTVSS
  polyreactivity (PSR sort gate): high polyreactivity

## QVQLEESGGGLVQAGGSLRLSCAASGSTFYYNAIGWYRQAPGKERELVAGITSGTGTKYADSVKGRFTISRDNAKNRVYLQMNSLKPEDTAVYYCAKDGTRYGSAPFGYWGQGTQVTVSS
  polyreactivity (PSR sort gate): low polyreactivity

## QVQLVESGGGLLQAGGSLRLSCAASGSTFNKYTMGWYIKAPGKERELVAAITSGDSTYYADSVKGRFTISRDNAKYTVYLQMNSLKTEDTAVYYCAKSLRAYRHVIYGKPFYSWGQGTQVTVSS
  polyreactivity (PSR sort gate): low polyreactivity

## QVQLVESGGGLVQAGGSLRLSCAASGSIFILYMGWYRQAPGKERELVATISSGGSTNYADSVKGRFTISRDNAKNTVYLQMNSLKPEDTAVYYCNARGSERVDTYSLYDYWGQGTQVTVSS
  polyreactivity (PSR sort gate): low polyreactivity

## QVQLVESGGGLVQAGGSLRLSCAASGRTFYQYAMGWYRQAPGKERELVAAISRSGTSTYYADSVKGRFTISRDNAKNTVYLQMNSLKPEDTAVYYCYVLRYDYWGQGTQVTVSS
  polyreactivity (PSR sort gate): high polyreactivity
